In patent US20070078092A1 (CUREGENICS, published 2007):
Square brackets hold non-standard residues; d marks the D form. Ends that are not written are not given here. * marks the point of attachment. Cholesteryloxycarbonyl = CC(C)CCC[C@@H](C)[C@H]1CC[C@H]2[C@@H]3CC=C4C[C@@H](OC(=O)*)CC[C@]4(C)[C@H]3CC[C@]12C; hLeu = CC(C)CC[C@H](N)C(=O)O; Nva = CCC[C@H](N)C(=O)O; Dap = NC[C@H](N)C(=O)O

Assays:
protein kinase B (PKB) = test: cell-based or functional assay
protein kinase A (PKA) = test: cell-based or functional assay

B1: PTR 6316 (peptide)
peptide: RQIKIWFQNRRMKWKKRPR[Nva]Y[Dap][hLeu]K(Cholesteryloxycarbonyl)-NH2
modifications: N-terminus assumed
SMILES: CCC[C@H](NC(=O)[C@H](CCCNC(=N)N)NC(=O)[C@@H]1CCCN1C(=O)[C@H](CCCNC(=N)N)NC(=O)[C@H](CCCCN)NC(=O)[C@H](CCCCN)NC(=O)[C@H](Cc1c[nH]c2ccccc12)NC(=O)[C@H](CCCCN)NC(=O)[C@H](CCSC)NC(=O)[C@H](CCCNC(=N)N)NC(=O)[C@H](CCCNC(=N)N)NC(=O)[C@H](CC(N)=O)NC(=O)[C@H](CCC(N)=O)NC(=O)[C@H](Cc1ccccc1)NC(=O)[C@H](Cc1c[nH]c2ccccc12)NC(=O)[C@@H](NC(=O)[C@H](CCCCN)NC(=O)[C@@H](NC(=O)[C@H](CCC(N)=O)NC(=O)[C@@H](N)CCCNC(=N)N)[C@@H](C)CC)[C@@H](C)CC)C(=O)N[C@@H](Cc1ccc(O)cc1)C(=O)N[C@@H](CN)C(=O)N[C@@H](CCC(C)C)C(=O)N[C@@H](CCCCNC(=O)O[C@H]1CC[C@@]2(C)C(=CC[C@H]3[C@@H]4CC[C@H]([C@H](C)CCCC(C)C)[C@@]4(C)CC[C@@H]32)C1)C(N)=O
IC50, in vitro kinase assay PKB (protein kinase B (PKB)): 100 nM
IC50, in vitro kinase assay PKA (protein kinase A (PKA)): 5000 nM
